We go through one substance from US20170360875A1 (priority 2014, published 2017).

This assay concerns the target Sudan Ebolavirus, Boniface (Bei Resources NR-31810; sonicated, gamma-irradiated infected Vero E6 cell pellets).

Values joined by “and” are separate entries in the source; they are usually repeats but may differ in a detail not shown here. Identical values can stand only once.

With “preformed immune complex of peroxidase-rabbit anti-peroxidase IgG (PAP complex) (from UniProt P00433 31-338)”, the OD 405 nm is 1.42 OD 405 nm and 1.29 OD 405 nm and 1.08 OD 405 nm.
